Data reported in the nanobody polyreactivity screen of Harvey et al. (2022).

Assay: yeast display, Sf9 membrane polyspecificity reagent, FACS + sequencing; frameworks hold sequencing errors
Summary of the method: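 Synthetic nanobody libraries on Saccharomyces cerevisiae BJ5465 were galactose-induced for 36–48 hours, stained 1 hour at 4 °C with 10% biotinylated, detergent-solubilized Sf9 membrane reagent and enriched on streptavidin microbeads. FACS then separated cells into low and high (top ~1%) gates by anti-HA (expression) and streptavidin (reagent binding) fluorescence. Genes were colony-PCR amplified, MiSeq 2 × 250 sequenced and CDR-length filtered. A clone's polyreactivity label is that of its gate of origin.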

Row | Sequence | polyreactivity (PSR sort gate)
1 | QVQLVESAAGLVQAGGSLRLSCAASGGIFHGYAMGWYRHAPGKERELVAAISWSTGSTYYADSVKGRFTISRDNAKNTVYLQMNSLKPEDTAVYYCAARYLSGTSRYYYWGQGTQVTVSS | high polyreactivity
2 | QVQLVESAAGLVQAGGSLRLSCAASGSTFGHYTMGWYRQAPGKERDLVAAISWSGGRTYYADSVKGRFTISRDYAKNTVYLQMNSLKPEDTAVYYCYVGYRGWSVNSWGQGTQVTVSS | high polyreactivity
3 | QVQLVESAAGLVQAGGSLRVSCAASGSSFRLYAMGWYRPAPGKEREFVARIRWRGGSTNYADSVKGRFTISRDNAKNNVYLQMNSLKTEDTAVYYCAAKQGTVRAHTYVPWYDYWGQGTQVTVSS | high polyreactivity
4 | QVQLVESAAGLVQAGGSLSLICAASGYIFATYAMGWYIQAPGTETELVAAITSGGITNYADSVKGRFTISRDNAKNTVYLQMNSLKPEDTAVYYCATGRRRYYFREYYYWGQGTQVTVSS | high polyreactivity
5 | QVQLVESAGCLVQAGASLRLSCAASGGTFRLYAMGWSRQAPGKERELVAAITGSSGGTYYADSVKGRFTISRDNAKNTVYLQMNSLKPEDTAVYYCAASSSYWGQGTQVTVSS | low polyreactivity
6 | QVQLVESAGGIDQAGGRLRLSSAASGGIFTPYAMGCYRQAPGKDRELVATISSDGSTNYADSVKGRFTISRDNAKNTVYLQMNSLKPEDTAVYYCNIDRHKVAGTLPGWWYDYLGQGTQVTVSS | low polyreactivity
7 | QVQLVESAGGLFQAGGSLRLSCAASGRTFYSNTMGWYRQAPGKEREFVAAIPSIVGSTYYADSVKGRFTISRDNSKNTVYLQMKSLKPEDTAVYDCAVTDYYSYLLRYDSWGQGTEVTVSS | low polyreactivity
8 | QVQLVESAGGLVQAGASLRLSCAASGGTSPVYAMGWYRQAPGKERELVAAIRYSGGRTNYADSVKGRFTISRDNAKNTVYLQMNSLKPEDTAVYYCAARGYRYQGDYWGQGTQVTVSS | high polyreactivity
9 | QVQLVESAGGLVQAGASLRLSCAASGSTFYYYAMGWYRQAPGKERELVAAIDWDSGSTYYADSVKGRFTISRDNAKNTVFLQMNSLNPEDTAVYYCAADSWFSDFDYWGQGTQETVSS | high polyreactivity
10 | QVQLVESAGGLVQAGASLRLSCDASGSTFVYYDMGWYRQAPGKERELVASISWSGGSTSYSDSVKGRFTISRDNAKNTVYLQMNSLKPEDTAVYYCNKSNPDYDGLAIHAFDYWGQGTQVTVSS | low polyreactivity
11 | QVQLVESAGGLVQAGGILRLSCAASGGIFRGYAMGWYRQAPGKERELVATIRSSGRTNYADSVKGRFTISRDNAKNTVYLQMNSLKPEDTAVYYCNKRRWWQYDRWGDWVLGGDDYWGQGTQVTVSS | low polyreactivity
12 | QVQLVESAGGLVQAGGILRLSCAASGRIFTRNAMGWYRQAPGKERELVAAISSSSGSKYYADSVKGRFTISRDNAKNTVYLQMNSLKPEDTAVYYCAARSYYYSWGYDHWGQGTQVTVSS | high polyreactivity
13 | QVQLVESAGGLVQAGGRLRLSCAASGFTFKKYAMGWYRQAPGKERELVASITWSGGSTSYADSVKGRFTISRDNAKNTVYLQMTSLKPEDTAVYYCAAATFVYRLRYNRFDYGGQGTQVTVSS | high polyreactivity
14 | QVQLVESAGGLVQAGGSHRLSCAASGFIFDSYAMGCYRPAPGKERELVAAITYSGSSTYYADSVKGRFTISRDNAKNTVYLQMNSLKPEDTGVYYCAAVWRYSHLYGYWGQGTQVTVSS | high polyreactivity
15 | QVQLVESAGGLVQAGGSLRISCAASGIIFARYSMGWYRPAPGKERELVAAINSSGGDTYYADSVKGRFTISRDTANNTVYLQMISLKPEDPAVYYCAKVISYLVVLPRTERYEGDYWGQGTQVTVSS | low polyreactivity
16 | QVQLVESAGGLVQAGGSLRLICAASGFTSNVYTMGWYRQAPGKERELVAAITSGGSTNYADSVKGRFTISRDNAKNTVYLQMNSLKPEDTAVYYCNTDVKEYFHHEGYPLRWEYDYWGQGTQVTVSS | low polyreactivity
17 | QVQLVESAGGLVQAGGSLRLSCAASGFIFEWYTMGWYRHAPGKERELVARISSDGSTTYADSVKGRFRISRDNAKNTVYLQMNSLKPEDTAVYYCAADVTYPGLKYIFDYWGQGSQVTVSS | low polyreactivity
18 | QVQLVESAGGLVQAGGSLRLSCAASGFIFYSNAMGWYRQAPGKERELVAGISRGGSTYYADSVKGRFTISRDNAKNTVYLQMNSLKPEDTAVYYCAASPSSYGRYGYWGQGTQVTVSS | low polyreactivity
19 | QVQLVESAGGLVQAGGSLRLSCAASGFTFREYAMGWYRQAPGKERELVAVITSGDNTYYADSVKGRFTISRDNAKNTVYLQMNSLKPEDTAVYYCAKDYNRYYWPWVIRGYDYWGQGTQVTVSS | low polyreactivity
20 | QVQLVESAGGLVQAGGSLRLSCAASGFTFYWYAMGWYRQAPGKEREFVAAIDQSGGSTYYADSVKGRFTISRDNAKNTVYLQMNSLKPEDTAVYYCAARYILWDGDSWTEFDYWGQGTQVTVSS | low polyreactivity
21 | QVQLVESAGGLVQAGGSLRLSCAASGITLSYNAMGWYRQAPGKERELVAAISARGGSTYYADSVKGRFTISRDPAKNTVYLQMYSLKPEDTAVYYCAAPRGWRQNKYDYWGQVTQVTVSS | high polyreactivity
22 | QVQLVESAGGLVQAGGSLRLSCAASGITYDHYAMGWYRQAPGKERELVARITGTGDSTYYADSVKGRFTISRDNAKNTVYLQMNSLKPEDTAVYYCAAVSYRQYYGWGNYWGLGTQVTVSS | low polyreactivity
